One substance from IntAct's records for PubMed 15385968 can be followed below.

This test has as its target xrcc4_human XRCC4 (UniProt Q13426).

xrcc4_human XRCC4, sequence (Q13426 whole entry): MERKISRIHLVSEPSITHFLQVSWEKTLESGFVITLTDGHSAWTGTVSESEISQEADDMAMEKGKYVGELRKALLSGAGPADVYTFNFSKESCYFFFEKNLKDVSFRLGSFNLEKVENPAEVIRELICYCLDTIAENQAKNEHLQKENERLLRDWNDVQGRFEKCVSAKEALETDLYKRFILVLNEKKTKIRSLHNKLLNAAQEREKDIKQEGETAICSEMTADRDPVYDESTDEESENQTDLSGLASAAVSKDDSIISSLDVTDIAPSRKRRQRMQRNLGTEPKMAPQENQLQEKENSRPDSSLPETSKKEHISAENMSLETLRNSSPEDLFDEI

As to “Bifunctional polynucleotide phosphatase/kinase (Homo sapiens), Q96T60 R35A”, the “effect of a mutation on the interaction” value is recorded as “disrupting interaction”.
